Substitutions are numbered along the chain they refer to. Square brackets hold non-standard residues; d marks the D form. Ends that are not written are not given here. Nle = CCCC[C@H](N)C(=O)O
B1: [Glu10,Nle17,Nle30]hPP2-36 (peptide)
peptide: PLEPVYPGENATPEQXAQYAADLRRYINXLTRPRY
modifications: norleucine (Nle) at positions 17 and 30, numbered on full-length hPP (SEQ ID No:3)
B2: [Nle17,Nle30]hPP2-36 (peptide)
peptide: B1 peptide with E9D
modifications: norleucine (Nle) at positions 17 and 30, numbered on full-length hPP (SEQ ID No:3)

What follows are binders tested against human Y4 receptor (human, UniProt P50391 1-375) (assay: cell-based or functional assay).
human Y4 receptor, sequence (P50391 whole entry): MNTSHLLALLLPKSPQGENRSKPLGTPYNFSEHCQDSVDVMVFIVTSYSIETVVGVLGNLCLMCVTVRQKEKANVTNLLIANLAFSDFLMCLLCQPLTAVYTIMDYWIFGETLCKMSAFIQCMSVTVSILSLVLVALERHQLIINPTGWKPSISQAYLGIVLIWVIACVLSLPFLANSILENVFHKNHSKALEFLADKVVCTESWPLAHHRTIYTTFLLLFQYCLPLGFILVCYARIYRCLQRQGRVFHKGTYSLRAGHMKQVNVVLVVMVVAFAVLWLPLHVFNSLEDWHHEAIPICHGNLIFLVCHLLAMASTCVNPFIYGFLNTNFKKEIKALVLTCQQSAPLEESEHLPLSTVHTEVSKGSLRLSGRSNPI
LEPVYPGDNATPEQMAQYAADLRRYINALTRPRY (ends and bridges not checked) [[Ala30]hPP3-36] was tested, and the “agonist potency (inositol phosphate turnover, transfected COS-7 cells): fold greater at Y4 than at Y1 receptor” value was no less than 200 fold and the “agonist potency (inositol phosphate turnover, transfected COS-7 cells): fold greater at Y4 than at Y2 receptor” value was no less than 1000 fold.
With LEPVYPGENATPEQLAQYAADLRRYINTLTRPRY (ends and bridges not checked) [[Glu10,Leu17,Thr30]hPP3-36] the “agonist potency (inositol phosphate turnover, transfected COS-7 cells): fold greater at Y4 than at Y1 receptor” value was no less than 200 fold and the “agonist potency (inositol phosphate turnover, transfected COS-7 cells): fold greater at Y4 than at Y2 receptor” value was no less than 1000 fold.
LEPVYPGDNATPEQMAQYAADLRRYINNLTRPRY (ends and bridges not checked) [[Asn30]hPP3-36] was tested, and the “agonist potency (inositol phosphate turnover, transfected COS-7 cells): fold greater at Y4 than at Y1 receptor” value was no less than 200 fold and the “agonist potency (inositol phosphate turnover, transfected COS-7 cells): fold greater at Y4 than at Y2 receptor” value was no less than 1000 fold.
For LEPVYPGENATPEQMAQYAADLRRYINMLTRPRY (ends and bridges not checked) [[Glu10]hPP3-36], the “agonist potency (inositol phosphate turnover, transfected COS-7 cells): fold greater at Y4 than at Y1 receptor” value was no less than 200 fold and the “agonist potency (inositol phosphate turnover, transfected COS-7 cells): fold greater at Y4 than at Y2 receptor” value was no less than 1000 fold.
LEPVYPGDNATPEQLAQYAADLRRYINSLTRPRY (ends and bridges not checked) [[Leu17; Ser30]hPP3-36] was tested, and the “agonist potency (inositol phosphate turnover, transfected COS-7 cells): fold greater at Y4 than at Y1 receptor” value was no less than 200 fold and the “agonist potency (inositol phosphate turnover, transfected COS-7 cells): fold greater at Y4 than at Y2 receptor” value was no less than 1000 fold.
LEPVYPGDNATPEQMAQYAADLRRYINTLTRPRY (ends and bridges not checked) [[Thr30]hPP3-36] was tested, and the “agonist potency (inositol phosphate turnover, transfected COS-7 cells): fold greater at Y4 than at Y1 receptor” value was no less than 200 fold and the “agonist potency (inositol phosphate turnover, transfected COS-7 cells): fold greater at Y4 than at Y2 receptor” value was no less than 1000 fold.
LEPVYPGDNATPEQLAQYAADLRRYINTLTRPRY (ends and bridges not checked) [[Leu17; Thr30]hPP3-36] was tested, and the “agonist potency (inositol phosphate turnover, transfected COS-7 cells): fold greater at Y4 than at Y1 receptor” value was no less than 200 fold and the “agonist potency (inositol phosphate turnover, transfected COS-7 cells): fold greater at Y4 than at Y2 receptor” value was no less than 1000 fold.
With LEPVYPGDNATPEQMAQYAADLRRYINQLTRPRY (ends and bridges not checked) [[Gln30]hPP3-36] the “agonist potency (inositol phosphate turnover, transfected COS-7 cells): fold greater at Y4 than at Y1 receptor” value was no less than 200 fold and the “agonist potency (inositol phosphate turnover, transfected COS-7 cells): fold greater at Y4 than at Y2 receptor” value was no less than 1000 fold.
In the case of PLEPVYPGDNATPEQMAQYAADLRRYINTLTRPRY (ends and bridges not checked) [[Thr30]hPP2-36], the “agonist potency (inositol phosphate turnover, transfected COS-7 cells): fold greater at Y4 than at Y1 receptor” value is reported as no less than 200 fold and the “agonist potency (inositol phosphate turnover, transfected COS-7 cells): fold greater at Y4 than at Y2 receptor” value is reported as no less than 1000 fold.
With PLEPVYPGDNATPEQLAQYAADLRRYINTLTRPRY (ends and bridges not checked) [[Leu17; Thr30]hPP2-36] the “agonist potency (inositol phosphate turnover, transfected COS-7 cells): fold greater at Y4 than at Y1 receptor” value was no less than 200 fold and the “agonist potency (inositol phosphate turnover, transfected COS-7 cells): fold greater at Y4 than at Y2 receptor” value was no less than 1000 fold.
In the case of B1, the “agonist potency (inositol phosphate turnover, transfected COS-7 cells): fold greater at Y4 than at Y1 receptor” value is reported as no less than 200 fold and the “agonist potency (inositol phosphate turnover, transfected COS-7 cells): fold greater at Y4 than at Y2 receptor” value is reported as no less than 1000 fold.
In the case of PLEPVYPGENATPEQLAQYAADLRRYINTLTRPRY (ends and bridges not checked) [[Glu10,Leu17,Thr30]hPP2-36], the “agonist potency (inositol phosphate turnover, transfected COS-7 cells): fold greater at Y4 than at Y1 receptor” value is reported as no less than 200 fold and the “agonist potency (inositol phosphate turnover, transfected COS-7 cells): fold greater at Y4 than at Y2 receptor” value is reported as no less than 1000 fold.
PLEPVYPGENATPEQMAQYAADLRRYINMLTRPRY (ends and bridges not checked) [[Glu10]hPP2-36] was tested, and the “agonist potency (inositol phosphate turnover, transfected COS-7 cells): fold greater at Y4 than at Y1 receptor” value was no less than 200 fold and the “agonist potency (inositol phosphate turnover, transfected COS-7 cells): fold greater at Y4 than at Y2 receptor” value was no less than 1000 fold.
With PLEPVYPGDNATPEQMAQYAADLRRYINALTRPRY (ends and bridges not checked) [[Ala30]hPP2-36] the “agonist potency (inositol phosphate turnover, transfected COS-7 cells): fold greater at Y4 than at Y1 receptor” value was no less than 200 fold and the “agonist potency (inositol phosphate turnover, transfected COS-7 cells): fold greater at Y4 than at Y2 receptor” value was no less than 1000 fold.
For PLEPVYPGDNATPEQMAQYAADLRRYINQLTRPRY (ends and bridges not checked) [[Gln30]hPP2-36], the “agonist potency (inositol phosphate turnover, transfected COS-7 cells): fold greater at Y4 than at Y1 receptor” value was no less than 200 fold and the “agonist potency (inositol phosphate turnover, transfected COS-7 cells): fold greater at Y4 than at Y2 receptor” value was no less than 1000 fold.
B2 was tested, and the “agonist potency (inositol phosphate turnover, transfected COS-7 cells): fold greater at Y4 than at Y1 receptor” value was no less than 200 fold and the “agonist potency (inositol phosphate turnover, transfected COS-7 cells): fold greater at Y4 than at Y2 receptor” value was no less than 1000 fold.
In the case of PLEPVYPGDNATPEQMAQYAADLRRYINNLTRPRY (ends and bridges not checked) [[Asn30]hPP2-36], the “agonist potency (inositol phosphate turnover, transfected COS-7 cells): fold greater at Y4 than at Y1 receptor” value is reported as no less than 200 fold and the “agonist potency (inositol phosphate turnover, transfected COS-7 cells): fold greater at Y4 than at Y2 receptor” value is reported as no less than 1000 fold.
For PLEPVYPGDNATPEQLAQYAADLRRYINSLTRPRY (ends and bridges not checked) [[Leu17; Ser30]hPP2-36], the “agonist potency (inositol phosphate turnover, transfected COS-7 cells): fold greater at Y4 than at Y1 receptor” value was no less than 200 fold and the “agonist potency (inositol phosphate turnover, transfected COS-7 cells): fold greater at Y4 than at Y2 receptor” value was no less than 1000 fold.
APLEPVYPGDNATPEQMAQYAADLRRYINALTRPRY (ends and bridges not checked) [[Ala30]hPP] was tested, and the “agonist potency (inositol phosphate turnover, transfected COS-7 cells): fold greater at Y4 than at Y1 receptor” value was no less than 200 fold and the “agonist potency (inositol phosphate turnover, transfected COS-7 cells): fold greater at Y4 than at Y2 receptor” value was no less than 1000 fold.
In the case of APLEPVYPGDNATPEQXAQYAADLRRYINXLTRPRY (norleucine (Nle) at positions 17 and 30) [[Nle17,Nle30]hPP], the “agonist potency (inositol phosphate turnover, transfected COS-7 cells): fold greater at Y4 than at Y1 receptor” value is reported as no less than 200 fold and the “agonist potency (inositol phosphate turnover, transfected COS-7 cells): fold greater at Y4 than at Y2 receptor” value is reported as no less than 1000 fold.
With APLEPVYPGENATPEQLAQYAADLRRYINTLTRPRY (ends and bridges not checked) [[Glu10,Leu17,Thr30]hPP] the “agonist potency (inositol phosphate turnover, transfected COS-7 cells): fold greater at Y4 than at Y1 receptor” value was no less than 200 fold and the “agonist potency (inositol phosphate turnover, transfected COS-7 cells): fold greater at Y4 than at Y2 receptor” value was no less than 1000 fold.
With APLEPVYPGDNATPEQMAQYAADLRRYINNLTRPRY (ends and bridges not checked) [[Asn30]hPP] the “agonist potency (inositol phosphate turnover, transfected COS-7 cells): fold greater at Y4 than at Y1 receptor” value was no less than 200 fold and the “agonist potency (inositol phosphate turnover, transfected COS-7 cells): fold greater at Y4 than at Y2 receptor” value was no less than 1000 fold.
With APLEPVYPGDNATPEQMAQYAADLRRYINTLTRPRY (ends and bridges not checked) [[Thr30]hPP] the “agonist potency (inositol phosphate turnover, transfected COS-7 cells): fold greater at Y4 than at Y1 receptor” value was no less than 200 fold and the “agonist potency (inositol phosphate turnover, transfected COS-7 cells): fold greater at Y4 than at Y2 receptor” value was no less than 1000 fold.
APLEPVYPGENATPEQMAQYAADLRRYINMLTRPRY (ends and bridges not checked) [[Glu10]hPP] was tested, and the “agonist potency (inositol phosphate turnover, transfected COS-7 cells): fold greater at Y4 than at Y1 receptor” value was no less than 200 fold and the “agonist potency (inositol phosphate turnover, transfected COS-7 cells): fold greater at Y4 than at Y2 receptor” value was no less than 1000 fold.
For APLEPVYPGDNATPEQLAQYAADLRRYINSLTRPRY (ends and bridges not checked) [[Leu17; Ser30]hPP], the “agonist potency (inositol phosphate turnover, transfected COS-7 cells): fold greater at Y4 than at Y1 receptor” value was no less than 200 fold and the “agonist potency (inositol phosphate turnover, transfected COS-7 cells): fold greater at Y4 than at Y2 receptor” value was no less than 1000 fold.
With APLEPVYPGDNATPEQMAQYAADLRRYINQLTRPRY (ends and bridges not checked) [[Gln30]hPP] the “agonist potency (inositol phosphate turnover, transfected COS-7 cells): fold greater at Y4 than at Y1 receptor” value was no less than 200 fold and the “agonist potency (inositol phosphate turnover, transfected COS-7 cells): fold greater at Y4 than at Y2 receptor” value was no less than 1000 fold.
APLEPVYPGDNATPEQLAQYAADLRRYINTLTRPRY (ends and bridges not checked) [[Leu17; Thr30]hPP] was tested, and the “agonist potency (inositol phosphate turnover, transfected COS-7 cells): fold greater at Y4 than at Y1 receptor” value was no less than 200 fold and the “agonist potency (inositol phosphate turnover, transfected COS-7 cells): fold greater at Y4 than at Y2 receptor” value was no less than 1000 fold.
With APLEPVYPGENATPEQXAQYAADLRRYINXLTRPRY (norleucine (Nle) at positions 17 and 30) [[Glu10,Nle17,Nle30]hPP] the “agonist potency (inositol phosphate turnover, transfected COS-7 cells): fold greater at Y4 than at Y1 receptor” value was no less than 200 fold and the “agonist potency (inositol phosphate turnover, transfected COS-7 cells): fold greater at Y4 than at Y2 receptor” value was no less than 1000 fold.
PLEPVYPGDNATPEQMAQYAADLRRYINMLTRPRY-NH2 [hPP2-36] was tested, and the “agonist potency (inositol phosphate turnover, transfected COS-7 cells): fold greater at Y4 than at Y1 receptor” value was no less than 200 fold and the “agonist potency (inositol phosphate turnover, transfected COS-7 cells): fold greater at Y4 than at Y2 receptor” value was no less than 1000 fold.
In the case of LEPVYPGDNATPEQ[Nle]AQYAADLRRYIN[Nle]LTRPRY (ends and bridges not checked) [[Nle17,Nle30]hPP3-36], the “agonist potency (inositol phosphate turnover, transfected COS-7 cells): fold greater at Y4 than at Y1 receptor” value is reported as no less than 200 fold and the “agonist potency (inositol phosphate turnover, transfected COS-7 cells): fold greater at Y4 than at Y2 receptor” value is reported as no less than 1000 fold.
LEPVYPGENATPEQ[Nle]AQYAADLRRYIN[Nle]LTRPRY (ends and bridges not checked) [[Glu10,Nle17,Nle30]hPP3-36] was tested, and the “agonist potency (inositol phosphate turnover, transfected COS-7 cells): fold greater at Y4 than at Y1 receptor” value was no less than 200 fold and the “agonist potency (inositol phosphate turnover, transfected COS-7 cells): fold greater at Y4 than at Y2 receptor” value was no less than 1000 fold.
In the case of LEPVYPGDNATPEQMAQYAADLRRYINMLTRPRY-NH2 [hPP3-36], the “agonist potency (inositol phosphate turnover, transfected COS-7 cells): fold greater at Y4 than at Y1 receptor” value is reported as no less than 200 fold and the “agonist potency (inositol phosphate turnover, transfected COS-7 cells): fold greater at Y4 than at Y2 receptor” value is reported as no less than 1000 fold.

From patent US20110251126A1, “INTESTINAL TREATMENT” (priority 2008, published 2011)
